Assays:
FGFR1 = FGFR1 (UniProt P11362); assay: phosphorylation enrichment, bacterial display (enrichment ratio); higher = better substrate or ligand; peptides without Tyr show the background
c-Abl (mouse) = assay: as above
FGFR3 = FGFR3 (UniProt P22607); assay: as above
EPHB2 = EPHB2 (UniProt P29323); assay: as above
Fer (mouse) = assay: as above
c-Src = assay: as above
AncSZ = assay: as above
EPHB1 = EPHB1 (UniProt P54762); assay: as above
Hck = Hck (UniProt P08631); assay: as above
MERTK = MERTK (UniProt Q12866); assay: as above
Fyn = Fyn (UniProt P06241); assay: as above
Fes = Fes (UniProt P07332); assay: as above
Jak2 = Jak2 (UniProt O60674); assay: as above
SHP2-C SH2 = assay: SH2 binding enrichment of the phosphorylated peptide, bacterial display (enrichment ratio); higher = better substrate or ligand; peptides without Tyr show the background
Grb2 SH2 = Grb2 SH2 (UniProt P62993); assay: as above
c-Src SH2 = assay: as above
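Throughout, for SH2 binding enrichment of the phosphorylated peptide, bacterial display: peptide library displayed on the E. coli surface as eCPX fusions, selected cells deep-sequenced, score is each peptide's frequency after selection divided by its frequency in the input.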
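Throughout, for phosphorylation enrichment, bacterial display: 11-residue human phosphosite peptides and single-mutation variants displayed on the E. coli surface, counted by deep sequencing, each peptide's frequency after selection divided by its frequency in the unselected input library; frequency after pTyr selection over input frequency; kinase dosed for 20-30% of maximal phosphorylation in three min.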

Sequence of Fyn (P06241 whole entry, looked up): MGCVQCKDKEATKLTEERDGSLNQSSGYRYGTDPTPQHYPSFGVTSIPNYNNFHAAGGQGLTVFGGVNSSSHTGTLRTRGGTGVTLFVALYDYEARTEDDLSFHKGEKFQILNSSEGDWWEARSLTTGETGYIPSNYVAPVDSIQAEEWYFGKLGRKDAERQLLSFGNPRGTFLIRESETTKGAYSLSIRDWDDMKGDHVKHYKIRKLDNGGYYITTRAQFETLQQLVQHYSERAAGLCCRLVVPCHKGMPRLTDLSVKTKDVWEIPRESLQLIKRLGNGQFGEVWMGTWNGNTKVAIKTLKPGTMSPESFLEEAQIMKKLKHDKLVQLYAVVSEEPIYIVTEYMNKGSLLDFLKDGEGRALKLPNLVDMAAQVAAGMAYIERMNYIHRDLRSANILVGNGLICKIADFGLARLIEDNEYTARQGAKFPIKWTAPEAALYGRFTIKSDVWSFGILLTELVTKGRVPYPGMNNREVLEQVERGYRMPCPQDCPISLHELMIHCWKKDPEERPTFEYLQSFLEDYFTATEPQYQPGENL
Sequence of FGFR1 (P11362 whole entry, looked up): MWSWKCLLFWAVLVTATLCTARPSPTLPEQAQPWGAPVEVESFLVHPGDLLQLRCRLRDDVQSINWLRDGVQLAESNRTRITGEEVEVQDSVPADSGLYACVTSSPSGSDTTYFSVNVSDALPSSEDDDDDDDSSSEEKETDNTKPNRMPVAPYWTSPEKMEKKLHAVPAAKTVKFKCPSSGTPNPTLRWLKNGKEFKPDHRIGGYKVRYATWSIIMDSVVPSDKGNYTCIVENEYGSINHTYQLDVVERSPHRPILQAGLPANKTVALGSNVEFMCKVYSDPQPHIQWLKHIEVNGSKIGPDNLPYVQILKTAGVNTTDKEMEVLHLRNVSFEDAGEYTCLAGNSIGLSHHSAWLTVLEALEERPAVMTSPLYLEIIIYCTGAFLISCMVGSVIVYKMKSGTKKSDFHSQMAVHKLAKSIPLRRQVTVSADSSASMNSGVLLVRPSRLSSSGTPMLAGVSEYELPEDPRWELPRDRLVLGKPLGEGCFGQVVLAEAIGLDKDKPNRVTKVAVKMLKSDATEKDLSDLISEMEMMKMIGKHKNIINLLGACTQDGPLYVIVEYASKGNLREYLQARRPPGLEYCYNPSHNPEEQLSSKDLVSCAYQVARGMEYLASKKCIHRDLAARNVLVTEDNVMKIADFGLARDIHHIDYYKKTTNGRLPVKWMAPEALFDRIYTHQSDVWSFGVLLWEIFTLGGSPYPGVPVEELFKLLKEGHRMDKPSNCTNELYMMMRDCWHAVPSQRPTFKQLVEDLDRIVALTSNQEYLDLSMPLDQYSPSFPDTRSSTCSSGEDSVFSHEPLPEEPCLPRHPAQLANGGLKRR
Sequence of EPHB1 (P54762 whole entry, looked up): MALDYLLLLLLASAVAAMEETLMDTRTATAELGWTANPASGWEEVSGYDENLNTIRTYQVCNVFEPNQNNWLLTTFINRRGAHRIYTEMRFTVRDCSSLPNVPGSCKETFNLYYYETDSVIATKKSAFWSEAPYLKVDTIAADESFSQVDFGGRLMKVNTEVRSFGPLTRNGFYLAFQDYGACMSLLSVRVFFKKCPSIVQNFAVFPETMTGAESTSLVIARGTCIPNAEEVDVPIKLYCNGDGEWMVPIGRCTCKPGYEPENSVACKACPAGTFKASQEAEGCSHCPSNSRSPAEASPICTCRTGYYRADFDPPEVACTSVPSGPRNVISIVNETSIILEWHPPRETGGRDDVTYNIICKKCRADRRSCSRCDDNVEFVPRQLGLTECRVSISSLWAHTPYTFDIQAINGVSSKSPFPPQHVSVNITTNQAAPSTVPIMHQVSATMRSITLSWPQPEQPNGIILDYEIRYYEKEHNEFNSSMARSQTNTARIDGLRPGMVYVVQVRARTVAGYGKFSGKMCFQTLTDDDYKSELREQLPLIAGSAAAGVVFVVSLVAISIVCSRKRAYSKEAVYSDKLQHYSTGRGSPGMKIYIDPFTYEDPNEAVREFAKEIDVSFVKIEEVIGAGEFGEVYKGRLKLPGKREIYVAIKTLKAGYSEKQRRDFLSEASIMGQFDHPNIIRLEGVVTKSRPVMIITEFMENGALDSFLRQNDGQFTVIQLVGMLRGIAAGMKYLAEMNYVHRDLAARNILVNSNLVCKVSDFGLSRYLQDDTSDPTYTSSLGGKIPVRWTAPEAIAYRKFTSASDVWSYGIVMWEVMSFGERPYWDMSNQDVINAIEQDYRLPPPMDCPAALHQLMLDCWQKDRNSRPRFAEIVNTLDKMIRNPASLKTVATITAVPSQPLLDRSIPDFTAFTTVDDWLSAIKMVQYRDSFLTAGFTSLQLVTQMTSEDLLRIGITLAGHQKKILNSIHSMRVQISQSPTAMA
Sequence of Fes (P07332 whole entry, looked up): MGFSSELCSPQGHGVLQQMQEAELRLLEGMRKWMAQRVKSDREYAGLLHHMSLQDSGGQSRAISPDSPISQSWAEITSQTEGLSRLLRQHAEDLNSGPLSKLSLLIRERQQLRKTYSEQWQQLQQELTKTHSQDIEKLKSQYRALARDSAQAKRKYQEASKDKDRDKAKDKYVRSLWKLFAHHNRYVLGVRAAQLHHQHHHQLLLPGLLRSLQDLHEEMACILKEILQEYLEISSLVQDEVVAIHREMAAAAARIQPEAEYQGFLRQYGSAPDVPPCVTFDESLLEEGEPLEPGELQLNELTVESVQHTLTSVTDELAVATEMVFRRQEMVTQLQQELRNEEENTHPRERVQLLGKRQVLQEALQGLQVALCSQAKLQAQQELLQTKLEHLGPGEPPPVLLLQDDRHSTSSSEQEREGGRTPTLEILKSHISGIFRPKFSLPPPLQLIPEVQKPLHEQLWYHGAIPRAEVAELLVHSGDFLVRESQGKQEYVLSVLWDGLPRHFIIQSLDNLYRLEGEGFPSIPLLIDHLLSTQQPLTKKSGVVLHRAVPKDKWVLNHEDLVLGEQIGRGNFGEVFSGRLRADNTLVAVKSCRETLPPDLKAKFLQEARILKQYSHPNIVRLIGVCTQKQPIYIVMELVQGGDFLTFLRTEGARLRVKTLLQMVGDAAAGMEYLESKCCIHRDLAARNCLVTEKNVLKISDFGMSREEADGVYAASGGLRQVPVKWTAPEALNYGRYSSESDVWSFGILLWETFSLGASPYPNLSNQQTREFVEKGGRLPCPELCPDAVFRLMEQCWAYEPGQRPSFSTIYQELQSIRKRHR
Sequence of MERTK (Q12866 whole entry, looked up): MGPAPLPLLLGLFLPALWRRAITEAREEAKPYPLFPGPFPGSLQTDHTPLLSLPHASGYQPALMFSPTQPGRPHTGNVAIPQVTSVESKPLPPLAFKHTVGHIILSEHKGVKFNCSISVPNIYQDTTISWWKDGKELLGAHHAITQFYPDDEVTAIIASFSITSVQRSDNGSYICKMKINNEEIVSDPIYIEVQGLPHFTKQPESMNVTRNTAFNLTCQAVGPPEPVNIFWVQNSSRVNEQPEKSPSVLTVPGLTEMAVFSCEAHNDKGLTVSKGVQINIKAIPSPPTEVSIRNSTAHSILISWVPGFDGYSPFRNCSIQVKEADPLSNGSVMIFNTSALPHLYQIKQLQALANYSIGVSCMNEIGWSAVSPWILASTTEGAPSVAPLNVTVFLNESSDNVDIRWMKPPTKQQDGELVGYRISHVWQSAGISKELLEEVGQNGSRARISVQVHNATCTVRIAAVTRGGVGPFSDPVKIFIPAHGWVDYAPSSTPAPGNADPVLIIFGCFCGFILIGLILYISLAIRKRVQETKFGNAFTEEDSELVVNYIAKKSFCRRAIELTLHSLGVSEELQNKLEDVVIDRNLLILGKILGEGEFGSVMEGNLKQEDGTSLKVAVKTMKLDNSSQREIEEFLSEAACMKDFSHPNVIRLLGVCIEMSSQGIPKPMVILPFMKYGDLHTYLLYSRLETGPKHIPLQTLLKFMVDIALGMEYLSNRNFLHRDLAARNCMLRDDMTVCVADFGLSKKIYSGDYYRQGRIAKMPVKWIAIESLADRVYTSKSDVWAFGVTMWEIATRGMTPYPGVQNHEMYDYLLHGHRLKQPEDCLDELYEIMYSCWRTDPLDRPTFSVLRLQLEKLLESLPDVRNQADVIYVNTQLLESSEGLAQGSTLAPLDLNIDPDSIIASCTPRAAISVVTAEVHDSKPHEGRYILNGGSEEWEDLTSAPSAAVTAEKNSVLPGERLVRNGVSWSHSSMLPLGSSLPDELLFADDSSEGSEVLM
Sequence of Grb2 SH2 (P62993 whole entry, looked up): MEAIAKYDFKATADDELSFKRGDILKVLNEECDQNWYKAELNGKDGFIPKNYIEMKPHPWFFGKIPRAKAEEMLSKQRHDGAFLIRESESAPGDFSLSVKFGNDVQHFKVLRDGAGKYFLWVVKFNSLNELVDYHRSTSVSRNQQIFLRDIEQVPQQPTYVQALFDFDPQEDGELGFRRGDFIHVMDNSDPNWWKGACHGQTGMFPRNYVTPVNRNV
Sequence of Hck (P08631 whole entry, looked up): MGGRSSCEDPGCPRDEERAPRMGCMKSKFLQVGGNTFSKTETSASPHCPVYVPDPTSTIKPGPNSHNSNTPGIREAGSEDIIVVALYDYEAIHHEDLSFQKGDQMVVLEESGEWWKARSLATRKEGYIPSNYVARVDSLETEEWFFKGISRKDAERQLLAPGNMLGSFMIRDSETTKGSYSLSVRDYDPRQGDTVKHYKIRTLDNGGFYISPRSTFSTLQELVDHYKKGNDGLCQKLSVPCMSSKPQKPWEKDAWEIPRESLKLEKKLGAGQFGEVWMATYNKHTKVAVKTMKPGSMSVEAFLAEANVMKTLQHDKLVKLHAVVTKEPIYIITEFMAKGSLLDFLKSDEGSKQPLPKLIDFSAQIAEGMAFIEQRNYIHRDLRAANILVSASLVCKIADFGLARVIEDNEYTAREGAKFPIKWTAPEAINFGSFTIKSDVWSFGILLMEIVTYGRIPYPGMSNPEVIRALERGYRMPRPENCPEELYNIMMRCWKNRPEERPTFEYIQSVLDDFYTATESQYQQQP

Sequence	phosphorylation enrichment (FGFR1)	phosphorylation enrichment (c-Abl (mouse))	phosphorylation enrichment (FGFR3)	phosphorylation enrichment (EPHB2)	phosphorylation enrichment (Fer (mouse))	phosphorylation enrichment (c-Src)	phosphorylation enrichment (AncSZ)	phosphorylation enrichment (EPHB1)	phosphorylation enrichment (Hck)	phosphorylation enrichment (MERTK)	phosphorylation enrichment (Fyn)	phosphorylation enrichment (Fes)	phosphorylation enrichment (Jak2)	SH2 binding enrichment (SHP2-C SH2)	SH2 binding enrichment (Grb2 SH2)	SH2 binding enrichment (c-Src SH2)
VATRWYRSLEL [CDKL5_Y177_P180L]	0.436	0.468	0.473	0.368	0.357	0.314	0.825	0.447	0.432	0.366	0.385	0.742	0.576	0.551	0.717	0.373
TKQLTYEEQFL [PIK3C3_Y310_D314Y_YF]	0.497	0.661	0.65	0.622	1.03	0.5	1.1	0.611	0.419	0.502	0.509	1.08	0.861	0.767	0.98	0.698
KENITYMKREQ [L1TD1_Y24]	0.462	0.703	0.554	0.514	0.431	0.58	0.827	0.498	0.554	0.453	0.443	1.05	0.828	0.692	0.809	0.498
FTRNFYVWAVL [CYBA_Y88_R90W_YF]	0.498	1.61	0.756	0.383	0.466	0.508	1.25	0.573	0.473	0.454	0.427	1.42	1.31	0.737	1.09	0.633
EHTTLYSNNST [KANSL1_Y223]	0.356	0.487	0.431	0.53	0.602	0.455	0.632	0.387	0.568	0.386	0.423	0.65	0.575	0.863	0.846	0.651
LEHCQYVTQKV [ALDOB_Y204_E207Q]	0.656	0.727	0.763	0.924	0.648	0.617	1.01	0.818	0.507	0.401	0.47	1.04	1.03	1.18	0.957	0.731
CYVYYYSYLLK [PTEN_Y178_R173C]	1.8	1.66	1.79	0.792	0.669	1.47	1.5	1.15	0.949	1.17	0.734	1.81	1.53	0.543	0.864	0.68
GLNKDYRMVVN [HINT1_Y94_G93D]	0.51	0.447	0.504	0.44	0.448	0.415	0.652	0.426	0.437	0.424	0.455	0.605	0.566	0.635	0.734	0.451

— the supplement of paper PMC10065799, “High-throughput profiling of sequence recognition by tyrosine kinases and SH2 domains using bacterial peptide display” (eLife, 2023)
